The test system of experiment [1] is Macaca fascicularis PRLR (mfPRLR.mmh; SEQ ID NO:403). Kind of experiment: Surface plasmon resonance (Biacore T200), antibody-capture format. Type of experiment: binding. The note with it: analyte mfPRLR.mmh. The method, then:
(§1) Antibodies, expressed as human IgG1 Fc (i.e., “H1H” designations), were captured onto an anti-human Fc sensor surface (mAb-capture format), and soluble monomeric (hPRLR.mmh; SEQ ID NO:401, or Macaca fascicularis (mf) PRLR.mmh; SEQ ID NO:403) or dimeric (hPRLR.mFc; SEQ ID NO:402) PRLR protein was injected over the sensor surface. Measurements were conducted on a T200 Biacore instrument. Kinetic association (ka) and dissociation (kd) rate constants were determined by processing and fitting the data to a 1:1 binding model using Scrubber 2.0 curve fitting software.
(In general: In SPR one partner is held on a chip, and binding of the other changes the refractive index at the surface.)

Experiment [2] has as its target T1, monomeric human PRLR (hPRLR.mmh; SEQ ID NO:401) (Homo sapiens, UniProt P16471).
T1 construct: soluble monomeric (hPRLR.mmh); mmh (myc-myc-hexahistidine) (C)
The experiment is described as above. Type of experiment: binding. The note with it: analyte hPRLR.mmh. The method, then:
as §1

Experiment [3] has as its target T2, dimeric human PRLR (hPRLR.mFc; SEQ ID NO:402) (Homo sapiens, UniProt P16471).
T2 construct: dimeric (hPRLR.mFc)
The description is as above. It counts as binding. The note with it: analyte hPRLR.mFc. The method, then:
as §1

Experiment [4] addresses T3, human PRLR on HEK293/hPRLR cells (Homo sapiens, UniProt P16471).
T3 construct: HA; expressed in transfected cells; host or cells: HEK293
T3 sequence (P16471 25-622): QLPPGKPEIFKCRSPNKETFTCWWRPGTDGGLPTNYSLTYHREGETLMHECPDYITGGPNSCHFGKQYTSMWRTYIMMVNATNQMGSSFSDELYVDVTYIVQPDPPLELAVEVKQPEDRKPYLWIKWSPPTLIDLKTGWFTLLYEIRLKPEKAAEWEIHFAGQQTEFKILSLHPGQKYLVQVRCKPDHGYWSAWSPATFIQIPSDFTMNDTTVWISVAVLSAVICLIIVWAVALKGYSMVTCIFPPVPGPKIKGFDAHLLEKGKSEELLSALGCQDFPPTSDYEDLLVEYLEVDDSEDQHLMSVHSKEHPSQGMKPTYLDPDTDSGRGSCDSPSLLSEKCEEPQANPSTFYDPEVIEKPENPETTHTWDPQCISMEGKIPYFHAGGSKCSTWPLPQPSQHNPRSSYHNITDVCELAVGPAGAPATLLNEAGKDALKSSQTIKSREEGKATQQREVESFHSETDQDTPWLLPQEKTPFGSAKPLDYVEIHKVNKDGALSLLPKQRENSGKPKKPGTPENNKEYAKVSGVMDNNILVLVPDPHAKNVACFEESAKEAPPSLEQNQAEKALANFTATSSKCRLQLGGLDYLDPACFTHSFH
Kind of experiment: FACS cell surface binding. The method, then:
(§2) The ability of anti-PRLR antibodies to selectively bind PRLR expressing cell lines was next determined. Human, monkey Macaca fascicularis, and mouse PRLR constructs with an HA tag were stably introduced into HEK293 cells via Lipofectamine 2000-mediated transfection methodology. Transfectants (HEK293/hPRLR, HEK293/mfPRLR and HEK293/mPRLR) were selected for at least 2 weeks in complete growth media plus G418.
(§3) Cell surface expression of PRLR on 293/hPRLR cells was assessed via FACS analysis. Briefly, 1×10^5 cells were incubated with 10 μg/ml of Control antibody I, or an isotype control for 30 min on ice in antibody dilution buffer. Following two washes with antibody dilution buffer, cells were incubated with 10 μg/ml of PE conjugated anti-human secondary antibodies for 30 min on ice. Following two additional washes, samples were run on a Hypercyt® cytometer and analyzed in ForeCyt™ (IntelliCyt, Albuquerque, N. Mex.). The mean fluorescence intensities (MFI) were expressed as fold change above isotype control levels (background). FACS binding confirmed that Control I selectively bound to 293/hPRLR expressing cells with MFIs that were 30 fold above background (isotype ctrl) levels and less than 2 fold binding on parental cells.
(§4) Next, the anti-PRLR antibodies were tested via FACS for selective binding to the engineered overexpressing PRLR HEK293 cell lines, as well as to non-expressing HEK293 cells and a native PRLR expressing cell line (T47D).

Experiment [5] has as its target T4, monkey PRLR on HEK293/mfPRLR cells (Macaca fascicularis, UniProt A0A2K5WXK1).
T4 construct: HA; expressed in transfected cells; host or cells: HEK293
T4 sequence (A0A2K5WXK1 25-619): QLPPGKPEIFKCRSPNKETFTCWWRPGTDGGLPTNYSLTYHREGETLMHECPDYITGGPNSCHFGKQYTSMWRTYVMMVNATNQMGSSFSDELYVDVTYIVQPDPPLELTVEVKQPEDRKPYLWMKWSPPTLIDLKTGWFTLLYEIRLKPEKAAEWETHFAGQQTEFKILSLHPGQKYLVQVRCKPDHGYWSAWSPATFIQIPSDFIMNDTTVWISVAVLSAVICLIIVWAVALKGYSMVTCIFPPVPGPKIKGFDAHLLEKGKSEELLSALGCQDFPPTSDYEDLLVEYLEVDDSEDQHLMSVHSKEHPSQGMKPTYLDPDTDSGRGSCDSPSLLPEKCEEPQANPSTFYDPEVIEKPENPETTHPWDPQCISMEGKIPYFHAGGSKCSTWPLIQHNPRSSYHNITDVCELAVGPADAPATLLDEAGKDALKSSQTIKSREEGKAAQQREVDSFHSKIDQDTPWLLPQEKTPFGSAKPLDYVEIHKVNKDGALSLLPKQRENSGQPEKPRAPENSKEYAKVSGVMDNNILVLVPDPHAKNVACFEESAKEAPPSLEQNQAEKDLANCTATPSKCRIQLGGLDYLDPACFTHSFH
Kind of experiment: FACS cell surface binding. The method, then: as §2, §3, §4

Experiment [6] has as its target T5, mouse PRLR on HEK293/mPRLR cells (Mus musculus, UniProt Q08501).
T5 construct: HA; expressed in transfected cells; host or cells: HEK293
T5 sequence (Q08501 20-608): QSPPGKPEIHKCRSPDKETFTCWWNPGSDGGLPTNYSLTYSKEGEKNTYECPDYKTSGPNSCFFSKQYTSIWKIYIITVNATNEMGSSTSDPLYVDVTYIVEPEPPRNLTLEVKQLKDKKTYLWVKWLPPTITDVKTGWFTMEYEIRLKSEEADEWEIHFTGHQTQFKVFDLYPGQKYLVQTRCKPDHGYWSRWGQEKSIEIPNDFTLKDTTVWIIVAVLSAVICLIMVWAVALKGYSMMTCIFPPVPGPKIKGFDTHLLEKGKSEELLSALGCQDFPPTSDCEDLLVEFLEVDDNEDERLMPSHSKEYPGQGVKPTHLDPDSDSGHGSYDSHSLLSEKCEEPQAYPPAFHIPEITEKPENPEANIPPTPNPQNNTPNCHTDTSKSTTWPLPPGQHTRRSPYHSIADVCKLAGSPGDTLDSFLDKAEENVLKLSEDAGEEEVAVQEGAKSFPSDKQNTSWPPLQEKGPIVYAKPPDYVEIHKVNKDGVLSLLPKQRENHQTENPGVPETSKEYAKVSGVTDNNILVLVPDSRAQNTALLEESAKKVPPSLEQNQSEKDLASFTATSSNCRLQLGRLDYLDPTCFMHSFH
Kind of experiment: FACS cell surface binding. The method, then: as §2, §3, §4

The next experiment relates to HEK293 parental cells. Kind of experiment: FACS cell surface binding. Also on record: species or system human. The method, then: as §2, §3, §4
Experiment [7] addresses T6, native PRLR expressing T47D cells (Homo sapiens, UniProt P16471).
T6 construct: a native PRLR expressing cell line (T47D); endogenous in cells; host or cells: T47D
T6 sequence (P16471 25-622): T3 sequence (P16471 25-622)
Kind of experiment: FACS cell surface binding. The method, then:
as §3, §4

T2 sequence (P16471 with tags, fused parts or gaps): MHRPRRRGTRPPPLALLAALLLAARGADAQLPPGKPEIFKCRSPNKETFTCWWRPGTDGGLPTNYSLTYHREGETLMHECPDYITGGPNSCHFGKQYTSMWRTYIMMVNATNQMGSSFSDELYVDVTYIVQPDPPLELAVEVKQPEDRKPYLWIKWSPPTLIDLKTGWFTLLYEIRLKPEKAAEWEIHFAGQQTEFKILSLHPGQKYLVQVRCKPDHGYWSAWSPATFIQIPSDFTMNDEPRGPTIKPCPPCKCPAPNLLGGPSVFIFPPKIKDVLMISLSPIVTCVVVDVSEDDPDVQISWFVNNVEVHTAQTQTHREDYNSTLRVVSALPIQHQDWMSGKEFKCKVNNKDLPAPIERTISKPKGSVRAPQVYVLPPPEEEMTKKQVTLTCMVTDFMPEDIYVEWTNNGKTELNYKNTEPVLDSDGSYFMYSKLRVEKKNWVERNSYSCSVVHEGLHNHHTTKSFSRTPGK
T1 sequence (P16471 with tags, fused parts or gaps): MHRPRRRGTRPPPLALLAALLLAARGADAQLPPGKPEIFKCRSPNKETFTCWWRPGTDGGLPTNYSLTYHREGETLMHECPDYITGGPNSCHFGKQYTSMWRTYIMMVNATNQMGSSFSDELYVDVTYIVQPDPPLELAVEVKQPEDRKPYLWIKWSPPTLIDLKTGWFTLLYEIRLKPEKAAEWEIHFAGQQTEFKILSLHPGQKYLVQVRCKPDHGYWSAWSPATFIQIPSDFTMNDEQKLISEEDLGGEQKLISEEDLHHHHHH
Macaca fascicularis PRLR (mfPRLR.mmh; SEQ ID NO:403), sequence (as listed by the source): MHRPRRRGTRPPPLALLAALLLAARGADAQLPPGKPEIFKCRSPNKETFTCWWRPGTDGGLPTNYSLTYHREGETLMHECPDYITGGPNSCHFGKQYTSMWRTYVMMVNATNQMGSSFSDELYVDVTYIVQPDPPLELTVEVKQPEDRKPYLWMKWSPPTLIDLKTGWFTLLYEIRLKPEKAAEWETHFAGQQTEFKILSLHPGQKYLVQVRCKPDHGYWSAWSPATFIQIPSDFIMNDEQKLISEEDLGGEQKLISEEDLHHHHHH

B1: H1H6762P: fully human anti-PRLR antibody, human IgG1 Fc; HCVR/LCVR SEQ ID NOs 2/10 (antibody, V domains shown)
VH: QVQLVESGGGVVQPGRSLRLSCAASGFTFSHYGMVWVRQPPGKGLEWVALISFDGTTKYYADSVKGRFTISRDNSKNTLYLQMNSLRAEDTAVYFCVGAIAAAAFDLWGRGTLVTVSS
VL: EIVMTQSPATLSVSPGERATLSCRASQSVSSDLAWYQQKPGQAPRLLIYSASARATGIPARFTGSGSGTDFTLTISSLQSEDFAVYYCQQYNNWPMYTFGQGTKLEIK
With B1, the ka was found to be 408000 M/s in experiment [1] (25° C.); 679000 M/s in experiment [1] (37° C.); 692000 M/s in experiment [2] (25° C.); 948000 M/s in experiment [2] (37° C.); 651000 M/s in experiment [3] (25° C.); 801000 M/s in experiment [3] (37° C.). For the same molecule, the kd amounted to 0.000208 s⁻¹ in experiment [1] (25° C.); 0.000558 s⁻¹ in experiment [1] (37° C.); 0.000179 s⁻¹ in experiment [2] (25° C.); 0.000455 s⁻¹ in experiment [2] (37° C.); 6.45e-05 s⁻¹ in experiment [3] (25° C.); 0.000103 s⁻¹ in experiment [3] (37° C.). Further, the “FACS Cell Binding” value worked out at 36 Fold Above Background in experiment [4]; 26 Fold Above Background in experiment [5]; 2 Fold Above Background in experiment [6]; 1 Fold Above Background with HEK293 parental cells; 38 Fold Above Background in experiment [7].

B2: H1H6976N: anti-PRLR antibody, human IgG1 Fc form of H2M6976N of Table 1; HCVR/LCVR SEQ ID NOs 386/394 (antibody, V domains shown)
VH: EVQLLESGGGFVQPGGSLRLSCAASGFTFSSYAMSWVRQAPGKGLEWVSIISSNGRYTYYADSVKGRFTISRDNSKNTLYLQMNSLRAEDTAVYYCATVTGDWFDPWGQGTLVTVSS
VL: DIQLTQSPSFLSASVGDRVTITCWASQDIDISLAWYQQKPGKAPKLLIYAASTLQSGVPSKFSGSGSGTDFTLTISSLQPEDFSTYYCQQLNSYPITFGQGTRLDIK
modifications: human IgG1 Fc
For the molecule B2, the ka in experiment [1] (25° C.) came out at 466000 M/s; in experiment [1] (37° C.) it was 603000 M/s; in experiment [2] (25° C.), 544000 M/s; in experiment [2] (37° C.), 777000 M/s; in experiment [3] (25° C.), 1.12e+06 M/s; in experiment [3] (37° C.), 1.37e+06 M/s. Also, the kd in experiment [1] (25° C.) came to 0.000814 s⁻¹; in experiment [1] (37° C.) it was 0.00316 s⁻¹; in experiment [2] (25° C.) it was 0.000864 s⁻¹; in experiment [2] (37° C.), 0.00314 s⁻¹; in experiment [3] (25° C.), 0.000101 s⁻¹; in experiment [3] (37° C.), 0.00014 s⁻¹. The “FACS Cell Binding” value stood at 8 Fold Above Background in experiment [4]; 29 Fold Above Background in experiment [5]; 1 Fold Above Background in experiment [6]; 1 Fold Above Background with HEK293 parental cells; 37 Fold Above Background in experiment [7].

B3: H1H6781P: fully human anti-PRLR antibody, human IgG1 Fc; HCVR/LCVR SEQ ID NOs 50/58 (antibody, V domains shown)
VH: EVQLVESGGDLVQPGESLRLSCTASGFTFNSYEMNWVRQAPGKGLEWVSYISSSGGTKYYVDSVKGRFTISRDNAKKSLYLQMNSLRADDTALYYCARLNGVDVFDIWGQGTMVTVSS
VL: DIQMTQSPSSLSASVGDRVTITCRASQDIFNYLAWFQQKPGKVPELLISAASTLQSGVPSRFSGSGSGTYFTLTISSLQPEDIATYYCQRYNSAPLTFGGGTKVEIK
In the case of B3, the ka amounted to 143000 M/s in experiment [1] (25° C.); 247000 M/s in experiment [1] (37° C.); 208000 M/s in experiment [2] (25° C.); 339000 M/s in experiment [2] (37° C.); 257000 M/s in experiment [3] (25° C.); 436000 M/s in experiment [3] (37° C.). In addition, the kd in experiment [1] (25° C.) was 0.000141 s⁻¹; in experiment [1] (37° C.) it was 0.000267 s⁻¹; in experiment [2] (25° C.), 0.000127 s⁻¹; in experiment [2] (37° C.) it was 0.000309 s⁻¹; in experiment [3] (25° C.) it was 6.05e-05 s⁻¹; in experiment [3] (37° C.) it was 9.84e-05 s⁻¹. For the same molecule, the “FACS Cell Binding” value in experiment [4] is 37 Fold Above Background; in experiment [5], 26 Fold Above Background; in experiment [6] it was 1 Fold Above Background; with HEK293 parental cells, 1 Fold Above Background; in experiment [7], 40 Fold Above Background.
